Series [1] deals with T1, PYL9 fused to the GAL4-DNA-binding domain (BD-PYL9) (Arabidopsis).
T1 construct: Y2H bait; also called pBD-GAL4-PYL9
Nature of the series: yeast two-hybrid, growth on media lacking His with and without ABA.

For a further series, the target named is T2, ABF2, Q9M7Q4.
T2 chain: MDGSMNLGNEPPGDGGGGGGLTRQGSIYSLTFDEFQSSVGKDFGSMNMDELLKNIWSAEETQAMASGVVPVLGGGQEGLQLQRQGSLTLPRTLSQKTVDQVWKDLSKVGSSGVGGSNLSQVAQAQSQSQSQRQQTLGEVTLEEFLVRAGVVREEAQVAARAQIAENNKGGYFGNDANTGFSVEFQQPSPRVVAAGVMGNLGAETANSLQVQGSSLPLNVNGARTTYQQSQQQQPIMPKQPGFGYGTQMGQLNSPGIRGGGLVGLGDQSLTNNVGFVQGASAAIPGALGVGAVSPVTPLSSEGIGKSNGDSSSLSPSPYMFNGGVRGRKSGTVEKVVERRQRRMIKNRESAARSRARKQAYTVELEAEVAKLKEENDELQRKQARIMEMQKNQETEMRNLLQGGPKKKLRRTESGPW

The target in another series is T3, ABA-insensitive 1 (ABI1) (Arabidopsis, UniProt P49597 1-434).
T3 construct: Endogenous protein in the TAP-MS experiment
T3 sequence (looked up): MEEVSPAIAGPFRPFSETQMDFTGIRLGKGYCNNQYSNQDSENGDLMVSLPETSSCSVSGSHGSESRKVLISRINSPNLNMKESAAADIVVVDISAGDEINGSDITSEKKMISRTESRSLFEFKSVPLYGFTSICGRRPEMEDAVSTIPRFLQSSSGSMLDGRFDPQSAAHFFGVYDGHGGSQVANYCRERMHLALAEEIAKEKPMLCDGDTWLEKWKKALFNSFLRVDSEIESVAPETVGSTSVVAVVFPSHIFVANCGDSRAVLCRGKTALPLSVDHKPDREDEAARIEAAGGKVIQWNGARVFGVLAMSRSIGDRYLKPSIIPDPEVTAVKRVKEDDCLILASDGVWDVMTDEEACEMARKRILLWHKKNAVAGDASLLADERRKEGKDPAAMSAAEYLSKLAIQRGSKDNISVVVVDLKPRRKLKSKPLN
Briefly: tandem affinity purification (anti-HA agarose, GFP-Trap) from seedlings, MS identification. The method, then:
(§1) Ten-day-old seedlings of the transgenic Arabidopsis plants expressing ProPYL9:PYL9-HA-YFP (FIG. 12A) were used for tandem affinity purification. Seedlings (3-4 g fresh weight) were treated for 1 h with ½ Murashige and Skoog medium containing 100 μM ABA or 30 min with ½ Murashige and Skoog medium containing 0.8 M mannitol; for the control, seedlings were treated with ½ Murashige and Skoog medium for 1 h. After treatment, samples were quickly frozen, ground in liquid N₂, homogenized in an equal volume of 2× immunoprecipitation (IP) buffer (100 mM Tris.HCl, pH 7.5, 300 mM NaCl, 2 mM EDTA, 0.2% Nonidet P-40, 2× protease mixture; Roche), and then, centrifuged at 30,000×g for 30 min at 4° C. The supernatant was passed through a 0.2-μM filter and centrifuged again at 30,000×g for 30 min at 4° C. After that, the supernatant was incubated with 40 μL 50% (vol/vol) slurry of monoclonal anti-HA agarose with antibody produced in mouse (A2095; Sigma), which was prebalanced with 1×IP buffer. The mixture was inverted for 1 h at 4° C. on a shaker. The agarose was then washed four times with 1×IP buffer, three times with high NaCl buffer (50 mM Tris.HCl, pH 7.5, 500 mM NaCl, 1 mM EDTA), and finally, three times with 1×IP buffer. The protein that had bound to the anti-HA agarose was eluted by HA peptide (ab13835; Abcam) with a concentration of […] in 200 μL 1×IP buffer overnight at 4° C. […]

A further series concerns the target T4, PP2CA (Arabidopsis, UniProt P49598 1-399).
T4 construct: Endogenous protein co-purified from seedlings and identified by MS
T4 sequence (looked up): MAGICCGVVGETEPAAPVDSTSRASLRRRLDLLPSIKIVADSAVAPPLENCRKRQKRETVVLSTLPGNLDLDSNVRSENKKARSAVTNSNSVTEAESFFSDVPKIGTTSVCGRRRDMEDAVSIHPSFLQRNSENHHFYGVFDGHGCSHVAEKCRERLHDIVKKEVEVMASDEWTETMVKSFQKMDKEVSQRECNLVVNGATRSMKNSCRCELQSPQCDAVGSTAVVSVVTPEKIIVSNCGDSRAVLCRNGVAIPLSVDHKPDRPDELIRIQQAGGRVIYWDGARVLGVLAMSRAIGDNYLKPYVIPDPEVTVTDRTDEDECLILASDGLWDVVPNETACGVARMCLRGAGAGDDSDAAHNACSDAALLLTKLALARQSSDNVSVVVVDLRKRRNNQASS
Described as above. The method, then: as §1

These results are taken from patent US20180320194A1 (PURDUE RESEARCH FOUNDATION, published 2018).

B1: activating domain (AD) alone (other, UniProt P04386 768-881, looked up)
chain: ANFNQSGNIADSSLSFTFTNSSNGPNLITTQTNSQALSQPIASSNVHDNFMNNEITASKIDDGNNSKPLSPGWTDQTAYNAFGITTGMFNTTTMDDVYNYLFDDEDTPPNPKKE
notes: Negative control prey in the Y2H assay
On to B1, for which the binding result in series [1] was “no binding”.

B2: SnRK2.6 (protein)
chain: MDRPAVSGPMDLPIMHDSDRYELVKDIGSGNFGVARLMRDKQSNELVAVKYIERGEKIDENVKREIINHRSLRHPNIVRFKEVILTPTHLAIVMEYASGGELFERICNAGRFSEDEARFFFQQLISGVSYCHAMQVCHRDLKLENTLLDGSPAPRLKICDFGYSKSSVLHSQPKSTVGTPAYIAPEVLLKKEYDGKVADVWSCGVTLYVMLVGAYPFEDPEEPKNFRKTIHRILNVQYAIPDYVHISPECRHLISRIFVADPAKRISIPEIRNHEWFLKNLPADLMNDNTMTTQFDESDQPGQSIEEIMQIIAEATVPPAGTQNLNHYLTGSLDIDDDMEEDLESDLDDLDIDSSGEIVYAM
Regarding B2, the “SAG12-LUC expression in protoplasts” value in the series with ABF2, Q9M7Q4 is reported as “Expression of SnRK2.6 significantly enhanced the ability of ABF2 to increase SAG12-LUC expression in the presence of ABA”.

B3: HA- and YFP-tagged PYL9 (PYL9-HA-YFP) (receptor)
chain: MMDGVEGGTAMYGGLETVQYVRTHHQHLCRENQCTSALVKHIKAPLHLVWSLVRRFDQPQKYKPFVSRCTVIGDPEIGSLREVNVKSGLPATTSTERLELLDDEEHILGIKIIGGDHRLKNYSSILTVHPEIIEGRAGTMVIESFVVDVPQGNTKDETCYFVEALIRCNLKSLADVSERLASQDITQ
notes: Expressed under the native PYL9 promoter in transgenic Arabidopsis seedlings; also called ProPYL9:PYL9-HA-YFP; not shown: 3HA tag at the C terminus; YFP tag at the C terminus
With B3, the binding result with ABA-insensitive 1 (ABI1) and with PP2CA was “binds” each time.
